Bridges are numbered along the chain shown (N, C = ends). Where no end group is shown, it is not given here. [ ]: non-standard residue; d: D form.
Experiments:
FcεR1α (Homo sapiens) = test: Surface plasmon resonance (BIAcore biosensor) inhibition of IgE-Fc binding to immobilized soluble FcεR1α; settings: peptide 2.5 mM; IgE-Fc 5 nM, association monitored for 6 minutes, 24° C.
Description: The kinetics of binding of IgE Fc to soluble FcεR1α were determined using a BIAcore biosensor (Pharmacia Biosensor AB, Uppsala, Sweden). The FcεR1α was immobilized via primary amine groups to a carboxymethylated dextran-coated CM5 sensor chip, at a concentration of 85 μg/ml in 10mM sodium acetate buffer pH 4.5, using N-hydroxy-succinimide and N-ethyl-N'-(3-[…])-carbodiimide.Free sites were blocked with 1M ethanolamine-hydrochloride pH 8.5.
The association of IgE-Fc at a concentration of 5nM was monitored for 6 minutes in the presence and absence of a derivative of the D amino acid peptide #1 at various concentrations (at 24° C.) The derivative of D amino acid peptide #1 is identical to D amino acid #1, which is described in Example 3, except it is biotinylated.

labelled myeloma IgE = test: competition: peptide titrated against 5 nM iodinated myeloma IgE binding to transfected CHO cells, gamma counting

Sequence of FcεR1α (Homo sapiens) (P01854 104-428 isoform P01854-1 limits assumed): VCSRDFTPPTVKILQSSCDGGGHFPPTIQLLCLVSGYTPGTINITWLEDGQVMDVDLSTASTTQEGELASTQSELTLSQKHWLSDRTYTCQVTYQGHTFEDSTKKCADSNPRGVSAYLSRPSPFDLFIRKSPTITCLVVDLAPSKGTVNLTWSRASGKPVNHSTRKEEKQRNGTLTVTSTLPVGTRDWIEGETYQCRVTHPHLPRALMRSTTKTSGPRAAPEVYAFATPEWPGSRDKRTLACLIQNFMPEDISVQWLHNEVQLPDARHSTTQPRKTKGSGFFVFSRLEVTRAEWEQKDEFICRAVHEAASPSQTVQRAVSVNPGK

Row | inhibition of IgE-Fc binding (FcεR1α (Homo sapiens)) | IC50 (labelled myeloma IgE) | Molecule
1 | virtually complete inhibition | – | derivative of D amino acid peptide #1: identical to D amino acid peptide #1, which is described in Example 3, except it is biotinylated (CIYYKDGEALKY[dC]; disulfide 1-13; also: biotinylated (site not given here))
2 | – | 5.14 µM | CIYYKDGEALKY[dC] (disulfide 1-13) [D amino acid peptide #1]
